Assay: yeast display, Sf9 membrane polyspecificity reagent, FACS + sequencing; frameworks hold sequencing errors
Outline: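 Nanobodies came from a synthetic yeast display library in Saccharomyces cerevisiae BJ5465, induced with galactose for 36–48 hours and stained for 1 hour at 4 °C with 10% biotinylated, detergent-solubilized Sf9 membrane reagent. Cells were enriched on streptavidin microbeads and then FACS-sorted, with low and high (top ~1%) gates set on anti-HA fluorescence for expression and streptavidin fluorescence for reagent binding. Each polyreactivity label reflects the gate a clone came from. Genes were amplified by colony PCR, sequenced by MiSeq 2 × 250 and filtered by CDR length.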

Row | Sequence | polyreactivity (PSR sort gate)
1 | QVQLVESGGGLVQAGGSLRLSCAASGLIFANYAMGWYRQAPGKERELVAAITWSGGTTYYADSVKGRFTISRDNAKNTVYLQMNSLKPEDTAVYYCAAEVPYYQAAEYDYWGQGTQVTVSS | low polyreactivity
2 | QVQLVESGGGLVQAGGSLRLSCAASGLIFARNAMVWYRQAPGKERELVAAIAKRGGSTFYADSVKVRFTISRDNAKNTVYLQMNSLKPEDTAVYYCNARSSETWHGDYWGQGTQVTVSS | high polyreactivity
3 | QVQLVESGGGLVQAGGSLRLSCAASGLIFARYAMGWYRQAPGKERELVAAISSRGGGTYYADSVKGRFTISRDNAKNTVYLQMNSLKPEDTAVYYCNRLRGTPVGLSIGGYYYWGQGTQVTVSS | high polyreactivity
4 | QVQLVESGGGLVQAGGSLRLSCAASGLIFARYAMGWYRQAPGKERELVAAISSSGVSTDYADSVKGRFTISRDNAKNTVYLQMNSLKPEDTAVYYCAKRTGSRVRGGKYGYWGQGTQVTVSS | high polyreactivity
5 | QVQLVESGGGLVQAGGSLRLSCAASGLIFATTVLGWYRQAPGKERELVASITTSGSRTYYADSVKGRFTISRDNAKNTVYLQMNSLKPEDTAVYYCAAYPTYLTPSSPGYDYWGQGTQVTVSS | high polyreactivity
6 | QVQLVESGGGLVQAGGSLRLSCAASGLIFAVYAMGWYRQAPGKERELVAGISASAASTYYADSVKGRFTISRDNAKNTVYLQMNSLKPEDTAVYYCAADFYWFWTYGTLWYGYEYWGQGTQVTVSS | high polyreactivity
7 | QVQLVESGGGLVQAGGSLRLSCAASGLIFAWYAMGWYRQAPGKERELVATISWNGDRTYYADSVKGRFTISRDNAKNTVYLQMNSLKPEDTAVYYCAARFGSGFNYWGQGTQVTVSS | high polyreactivity
8 | QVQLVESGGGLVQAGGSLRLSCAASGLIFDDYAMGWYRQAPGKERELVAAISWSDGTTYYADSVKGRFTISRDNAKNTVYLQMNSLKTEDTAVYYCAAEEVSGWEYDYWGQGTQVTVSS | high polyreactivity
9 | QVQLVESGGGLVQAGGSLRLSCAASGLIFDPYAMGWYRQAPGKERELVADISSGGSTNYADSVKGRFTISRDNAKNTVYLQMTSLKPEDTAVYYCNKTIILDGYYFSLTLYDSWGQGTQVTVSS | low polyreactivity
10 | QVQLVESGGGLVQAGGSLRLSCAASGLIFDWYAMGWYRQAPGKERELVADISYSGGSTNYADSVKGRFTISRDNAKNTVYLQMNSLKPEDTAVYYCAADDYWTPFGYWGQGTQVTVSS | low polyreactivity
11 | QVQLVESGGGLVQAGGSLRLSCAASGLIFDYYAMGWYRQAPGKERELVASINNRGGSTFYADSVKGRFTISRDNAKNTVYLQMNSLKPEDTAVYYCNAVRRTGGHGDYWGQGTQVTVSS | high polyreactivity
12 | QVQLVESGGGLVQAGGSLRLSCAASGLIFDYYPMGWYRTAPGKERELVAAISYSGGRTYYADSVKGRFTISRDKAKNTVYLQMNSLKPEDTAVYYCNKVVLQPVIVDHDYWGQGTQVTVSS | low polyreactivity
13 | QVQLVESGGGLVQAGGSLRLSCAASGLIFESNAMGWYRQAPGKGRELVAAITTNGGSTYYADSVKGRFTISRDKGKNTVYLQMNSLKPEDTAVYYCAARFSYRSYDYWGQGTQVTVSS | low polyreactivity
14 | QVQLVESGGGLVQAGGSLRLSCAASGLIFFPKAMGGYRPAPGKERELVAYITWSGGGTNYSDSVKGRFTISRDNAKNTVYLQMNSLKPEDTAVYYCNADGTRDYFSLITGSYSVTYDYWGQGTQVTVSS | high polyreactivity
15 | QVQLVESGGGLVQAGGSLRLSCAASGLIFFYYTMGWYRQAPGKERELVAAISQSGGRTYYADSVKGRFTISRDNAKNTVYLQMNSLKPEDTAVYYCAAAVRYRGDEFDYWGQGTQVTVSS | low polyreactivity
16 | QVQLVESGGGLVQAGGSLRLSCAASGLIFGPYTMGWYRQAPGKERELVAAISRSGGITYYADSEKGRFTISRDNAKNTVYLQMNSLKPEDTAGYYCAARYSTQWSRYDYWGQGTQVTVSS | high polyreactivity
17 | QVQLVESGGGLVQAGGSLRLSCAASGLIFGRNAMGWYRQAPGKERELVAAISWSGGSTYYADSVKGRFTISRDNAKNTVYLEMKSLKPEDTAVYYCYRYRYYGSEDDYWGQCTQVTVSS | high polyreactivity
18 | QVQLVESGGGLVQAGGSLRLSCAASGLIFGRNAMGWYRQAPGKERELVAAISWSGGSTYYADSVKGRFTISRDNAKNTVYLQMNSLKPEDTAVYYCNRYRYYGSEDDYWGQGTQVTVSS | high polyreactivity
19 | QVQLVESGGGLVQAGGSLRLSCAASGLIFGRNAMGWYRQAPGKERELVAAITSGGSTYYADSVKGRFTISRDNAKNTVYLQMNSLKPEDTAVYYCAADVVDLYLLDYWGQGTQVTVSS | low polyreactivity
20 | QVQLVESGGGLVQAGGSLRLSCAASGLIFGSYVMGWYRQAPGKERELVAAITVRTGTTYYADSVKGRFTISRDNAKNTVYLQMNSLKPEDTAVYYCARRYRPKYGYWGQGTQVTVSS | high polyreactivity
21 | QVQLVESGGGLVQAGGSLRLSCAASGLIFGTYAMGWYRQAPGKERELVAVISSSGGSTYYADSVKGRFTISRDNAKNTVYLQLNSLKPEDTAVYYCNARAFRQGHFEYDYWGQGTQVTVSS | low polyreactivity
22 | QVQLVESGGGLVQAGGSLRLSCAASGLIFGYNAMGWYRQAPGKEREYVAGISVIDGRTYYADSVKGRFTISRDNAKNTVYLQMNSLKPEDTAVYYCATEGFVYSWLWEFEYWGQGNQVTVSS | low polyreactivity

Row | Sequence | polyreactivity (PSR sort gate)
23 | QVQLVESGGGLVQAGGSLRLSCAASGLIFHRNAMGWYRQAPGTERELVAAITKTGGGTYYADSVKGRFTISRDNAKNTVYLQMNSLKPEDTAVYYCAADTQRTFYYWGQGTQVTVSS | low polyreactivity
24 | QVQLVESGGGLVQAGGSLRLSCAASGLIFIDYAIGWYRQAPGKERELVAAITRGGARTYYADSVKGRFTISRDNAKNTVYLEMNSLKPEDTAVYYCAADRPGSRYIDVDYWGQGTQVTVSS | high polyreactivity
25 | QVQLVESGGGLVQAGGSLRLSCAASGLIFIFNTMGWYRQAPGKERELVAAISWSGTSTYYADSVKGRFTISRDNANMTVYLLMNSLKPVDTAVYFCNDDLYWFRGFDYWGQGTQVTVSS | high polyreactivity
26 | QVQLVESGGGLVQAGGSLRLSCAASGLIFIVYAMGWYRQAPGKERELVAAISWSGGSTYYADSVKGRFTISRDNAKNTVYLQMNSLKPEDTAVYYCAAESYGVWDYEYWGQGTQVTVSS | high polyreactivity
27 | QVQLVESGGGLVQAGGSLRLSCAASGLIFKYNVMGWYRQAPGKERELVAAITKRGGSTYYADSVKGRFTISRDNAKNTVYLQMNSLKPEDTAVYYCAARPVNTVRPFDYWGQGTQVTVSS | high polyreactivity
28 | QVQLVESGGGLVQAGGSLRLSCAASGLIFKYNVMGWYRQAPGKERELVAAITKRGGSTYYADSVKGRFTISRDNEKNTVYLQMNSLKPEDTAVYYCAARPVNTVRPFDYWGQGTQVTVSS | high polyreactivity
29 | QVQLVESGGGLVQAGGSLRLSCAASGLIFKYYAMGWYRHAPGKERELVAAITWRGGDRTYYADSVKGRFTISRDNAKNTVYLQMNSLKPEDTAVYYCAAVISSPWRFDYWGQGTQVTVSS | high polyreactivity
30 | QVQLVESGGGLVQAGGSLRLSCAASGLIFKYYAMGWYRQAPGKERELVASISRGGVTTYYADSVKGRFTISRDNAKNTVYLQMNSLKPEDTAVYYCAARFRYAPFYHWGQGTQVTVSS | high polyreactivity
31 | QVQLVESGGGLVQAGGSLRLSCAASGLIFLWYAMGWYRQAPGKERELVAAIRSSGDSTYYADSVKGRFTISRDNAKNTVYLQMNSLKPEDTAVYYCNRRKTNSRYDYWGQGTQVTVSS | low polyreactivity
32 | QVQLVESGGGLVQAGGSLRLSCAASGLIFLYAMGWYRQAPGKERELVAAISNGGSTYYADSVKGRFTISRDNAKNTVYLQMNSLKPEDTAVYYCAAKGVRRRYRQDMYYWGQGTQVTVSS | high polyreactivity
33 | QVQLVESGGGLVQAGGSLRLSCAASGLIFLYNPMGWYRQAPGKEREFVAAITSVDSTKYADSVKGRFTISRENAKNTVYLQLNSLKPEDTAVYYCAAVPRYQYGYWGQGTQVTVSS | low polyreactivity
34 | QVQLVESGGGLVQAGGSLRLSCAASGLIFNWNDMGWYRQAPGKERELVAAISGDGGITYYADSVKGRFTISRDNAKNTVYLQMNSLKPEDTAVYYCNAGFTWGDWYDYWGQGTQVTVSS | low polyreactivity
35 | QVQLVESGGGLVQAGGSLRLSCAASGLIFNYNSMGWYLQAPGKEMELVAVITSGDSTNYADSVKGRFTISRDNAKNTVYLQMNSLKPEDTAVYYCNADYVYSGGRYYGKDYWFDYWGQGTQVTVSS | low polyreactivity
36 | QVQLVESGGGLVQAGGSLRLSCAASGLIFPGYAMGWYRPAPGKERELVAAISGSGGSTYYADSVKGRFTISRDNAKNTVYLQMNSLKPEDTAVYYCSTSGPQYYSRNFDYWGQGTQVTVSS | low polyreactivity
37 | QVQLVESGGGLVQAGGSLRLSCAASGLIFPKYAMGWYRQAPGNEREFVAAISGRGGTTYYADSVKGRFTISRDNAKNTVYLQMNSLKPEDTAVYYCAAGGPWANIYGNGYWGQGTQVTVSS | high polyreactivity
38 | QVQLVESGGGLVQAGGSLRLSCAASGLIFPPNVMGWYRQAPWKERELVAAITSSGSTKYADSVKGRFTISRDNAKNTVYLQMNSLKPEDTAVYYCARDQTWSYQPWYYLSYPQYEYWGQGTQVTVSS | low polyreactivity
39 | QVQLVESGGGLVQAGGSLRLSCAASGLIFPPYAMGWYRQAPGKEREFVARISWSTSSTYYADSVKGRFTISRDNAKNTVYLQMNSLKPEDTAVYYCNARFDDWWGEFDYWGQGTQVTVSS | high polyreactivity
40 | QVQLVESGGGLVQAGGSLRLSCAASGLIFPVYVMGWYRQAPGKEREFVAAITWSTSTYYADSVKGRFTISRDNAKNTVYLQMNSLKPEDTAVYYCNARRGWYSPIYYYWGQGTQVTVSS | high polyreactivity
41 | QVQLVESGGGLVQAGGSLRLSCAASGLIFQTYAMGWSRQAPGKERELVATISGSTGGTYYADSVKGRFTISRDNAKNTVYLQMNSLKPEDTAVYYCNASVFQSEYDYWGQGTQVTVSS | low polyreactivity
42 | QVQLVESGGGLVQAGGSLRLSCAASGLIFQVYDIGWYRQAPGKERELVAAISSGSNTNYADSVKGRFTISRDNAKNTVYLQMNSLKPEDTAVYYCAADFQYYFFWEEDYWGQGTQVTVSS | low polyreactivity
43 | QVQLVESGGGLVQAGGSLRLSCAASGLIFQVYDMGWYRQAPGKERELDAAISSGSNTNYADSVKGRFTISRDNAKNTVYLQMNSLIPEDTAVYYCAASWGYGGLTPDMGYWGQGTHVTVSS | low polyreactivity
